# Source: patent US7867500B2, “Cofactor that modulates steroid receptor activities” (The United States of America as represented by the …, priority 2004, dated 2011)
# T1: TIF2.4 (Homo sapiens, UniProt Q15596)
# T1 sequence (Q15596 624-1010 limits assumed): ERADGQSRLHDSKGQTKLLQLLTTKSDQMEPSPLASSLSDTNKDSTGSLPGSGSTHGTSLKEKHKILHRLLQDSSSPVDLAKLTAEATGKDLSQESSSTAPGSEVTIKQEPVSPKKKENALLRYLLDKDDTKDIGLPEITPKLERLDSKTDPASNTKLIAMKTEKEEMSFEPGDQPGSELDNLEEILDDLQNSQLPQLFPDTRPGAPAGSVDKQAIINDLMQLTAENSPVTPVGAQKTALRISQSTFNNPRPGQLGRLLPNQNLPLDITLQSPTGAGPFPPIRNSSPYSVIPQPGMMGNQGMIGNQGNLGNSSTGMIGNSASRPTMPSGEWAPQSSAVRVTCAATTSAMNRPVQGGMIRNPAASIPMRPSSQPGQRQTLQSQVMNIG
# T2: glucocorticoid receptor (GR) (Rattus norvegicus, UniProt P06536)
# T2 construct: made in house; host or cells: cell-free coupled transcription/translation (Promega TNT SP6); the GST partner was made in E. coli BL21
# T2 sequence (P06536 1-795): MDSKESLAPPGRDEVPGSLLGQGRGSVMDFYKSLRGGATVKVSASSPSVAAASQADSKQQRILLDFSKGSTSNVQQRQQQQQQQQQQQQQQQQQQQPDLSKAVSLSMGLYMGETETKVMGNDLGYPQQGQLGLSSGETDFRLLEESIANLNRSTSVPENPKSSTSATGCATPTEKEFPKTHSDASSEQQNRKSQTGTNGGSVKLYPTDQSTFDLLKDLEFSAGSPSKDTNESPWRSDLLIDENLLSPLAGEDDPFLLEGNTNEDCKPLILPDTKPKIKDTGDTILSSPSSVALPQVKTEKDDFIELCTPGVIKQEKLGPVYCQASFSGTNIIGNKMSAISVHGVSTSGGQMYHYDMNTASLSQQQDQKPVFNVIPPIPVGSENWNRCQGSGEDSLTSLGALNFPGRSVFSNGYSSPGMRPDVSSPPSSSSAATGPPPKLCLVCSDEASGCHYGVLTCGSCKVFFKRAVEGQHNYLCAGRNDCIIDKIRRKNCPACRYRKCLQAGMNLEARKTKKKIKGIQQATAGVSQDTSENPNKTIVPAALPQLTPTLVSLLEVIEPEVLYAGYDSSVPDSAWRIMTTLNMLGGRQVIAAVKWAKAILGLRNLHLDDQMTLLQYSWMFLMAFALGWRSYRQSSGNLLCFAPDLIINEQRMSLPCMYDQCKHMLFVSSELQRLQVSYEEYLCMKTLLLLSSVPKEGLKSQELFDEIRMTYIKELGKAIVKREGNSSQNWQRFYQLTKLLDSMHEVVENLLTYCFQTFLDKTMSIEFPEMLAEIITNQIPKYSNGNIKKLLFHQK
# T2 sequence (Q6EMB2 960-1281 F1267S partner limits assumed): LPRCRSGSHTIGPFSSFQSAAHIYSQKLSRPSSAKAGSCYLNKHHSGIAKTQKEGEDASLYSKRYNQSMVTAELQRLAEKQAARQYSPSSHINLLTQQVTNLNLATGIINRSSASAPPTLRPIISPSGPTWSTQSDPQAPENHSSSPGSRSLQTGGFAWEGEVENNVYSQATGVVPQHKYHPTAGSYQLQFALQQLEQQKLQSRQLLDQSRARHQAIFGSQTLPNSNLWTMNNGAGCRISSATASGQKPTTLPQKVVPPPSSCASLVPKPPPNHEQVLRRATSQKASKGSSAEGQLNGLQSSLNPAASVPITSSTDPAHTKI
# Key:
# STAMP = target: T3, STAMP (Homo sapiens, UniProt Q6EMB2); assay: siRNA assay: fold repression by GR of AP-1/Luc reporter in U2OS.rGR cells; format: cell-based; conditions: 500 ng siRNA, without HA/STAMP plasmid
# T3 construct: Indirect immunofluorescence, using HA-tagged full-length STAMP; expressed in transfected cells; host or cells: U2OS.rGR
# Method: U2OS.rGR cells were transiently transfected with (FIG. 5E) or without (FIG. 5F) HA/STAMP plasmid (100 ng) and ±500 ng of STAMP siRNA, or β-actin siRNA, plus AP-1/Luc reporter (20 ng) and the Renilla control (10 ng) plasmid. The cells were processed and the fold repression with each treatment was calculated as described in FIG. 5A. The average values were then plotted (±S.E.M., n=4-5 (FIG. 5D) and 7 (FIG. 5E); *, P≦0.032; **, P=0.0022).
# Four different siRNA oligonucleotides for STAMP were designed and synthesized by Qiagen:
# A control β-actin siRNA was also purchased from Qiagen. U2OS.rGR cells were seeded at 50,000 cells per well in 24 wells plate the day before transfection. DNA (STAMP plasmid and AP-1/Luc reporter; total=150 ng) together with 500 ng siRNA were mixed with 1.6 μl Lipofectamine 2000 (Invitrogen), allowed to stand at room temperature for 15 min, and then added to FBS-free DMEM pre-washed cells. Four hours later, the cells were re-fed with DMEM/10% FBS (containing G418), allowed to recover for 2 h, and re-fed with DMEM/10% FBS (containing G418) containing appropriate hormone dilutions±PMA. The cells were harvested and Luciferase activity was determined as described above in the standard transient transfection studies.
# TIF2.4 [1] = target: T1, TIF2.4; assay: Cell-free pulldown of [35S]-labeled STAMP constructs by GST/TIF2.4; format: binding; conditions: compared with GST itself
# Description: (§1) FIGS. 7A and 7B illustrate the domains of STAMP that bind to TIF2.4 (FIG. 7A) and GR (FIG. 7B) in cell-free pulldown assays. Bacterially expressed GST-chimeras (GST/TIF2.4 in FIG. 7A and GST/STAMP segments in FIG. 7B) were immobilized on glutathione-Sepharose beads. The [^35S]methionine labeled STAMP fragments (FIG. 7A) or wild type GR (FIG. 7B) that were retained on the matrix by binding to the GST chimeras were separated on SDS PAGE gels and visualized by autoradiography. Specific binding was seen as when the GST/TIF2.4 or GST/STAMP bands were darker than the GST control bands. […] Similar results were obtained in a second experiment.
# (§2) Template DNA plasmids (1 μg), 40 μl of Promega TNT (SP6) quick coupled transcription/translation system master mixture, and 2 μl of [^35S]methionine (Amersham Biosciences) were brought up to a total volume of 50 μl with H2O and incubated at 30° C. for 90 min according to the manufacturer's (Promega) recommendations. If hormone stimulation is needed, hormones (Dex, etc) were added into the transcription-translation reaction during the 30° C. incubation to both increase the stability of the synthesized GR and to cause activation of the GR-steroid complexes.
# These assays were conducted generally as described (He et al., 2002). Sonicated bacterial lysates (1 ml) containing overexpressed GST, GST/TIF2.4, or GST/STAMP-956C were incubated with 160 μl of glutathione-Sepharose 4B beads for 1 hr at 0° C. The mixture was centrifuged (12,000×g), the supernatant was discarded, and the pellet was washed with phosphate-buffered saline (3×1 ml). Each 20-μl sample of immobilized GST or GST-chimera was then incubated overnight with 10 μl of ^35S-labeled in vitro translation product. The matrix was washed with phosphate-buffered saline (4×1 ml). The immobilized proteins were removed from the beads by heating at 90° C. for 5 min in 20 μl of 2×SDS loading buffer. The proteins were separated on 8-10% SDS-PAGE gels and detected by radio-autoradiography.
# TIF2.4 [2] = target: T1, TIF2.4; assay: Mammalian two-hybrid assay in CV-1 cells (pFRLuc reporter) with TIF2.4; format: cell-based; set-up: expressed in transfected cells; host or cells: CV-1
# Description: FIG. 2A-2C illustrate the isolation and characterization of the partial clone of the protein that binds to TIF2.4. […] Five clones were obtained but only two (clones I and V) contained a protein that was needed for colony growth in the presence of the pSos/TIF2.4 fusion protein. After initial screening, only clone I (also named 6-6CL1) was selected for further investigation. FIG. 2B and FIG. 2C illustrate the selectivity of 6-6CL1 interactions with TIF2.4 in mammalian two-hybrid assays. Triplicate samples of CV-1 cells in 24-well plates were transiently transfected with the indicated GAL-DBD and VP16-AD plasmids along with the GAL4-regulated reporter, pFRLuc. The relative luciferase activity, normalized for the activity of the internal Renilla control, was determined and plotted as the average±S.D. The much lower activity of GAL/TIF2.4m123 was previously shown not to be due to unequal levels of protein expression (He et al., 2002). Similar results were obtained in three additional experiments. FIG. 2D and FIG. 2E provide a comparison of binding to 6-6CL1 by similarly positioned domains of SRC-1 and TIF2. Triplicate samples of CV-1 cells in 24-well plates were analyzed as in (B&C) after being transiently transfected with GAL±6-6CL1 constructs and pFRLuc reporter along with VP16 chimeras of SRC-1 (FIG. 2D) or TIF2 (FIG. 2E) segments. Similar results for SRC-1 were obtained in two additional experiments (ND=not determined). Western blots (FIG. 2F) indicate that the low activity of TIF2(1140C) (see FIG. 1) is not due to inadequate protein expression.
# FIGS. 6A and 6B illustrate the domains of STAMP that interact with TIF2.4 (FIG. 6A) and GR (FIG. 6B) in the mammalian two-hybrid assay. […] These CV-1 cells were also transfected with GAL fused to the indicated segments of STAMP along with the FRLuc reporter and Renilla control plasmids. After determining the relative luciferase activities as described in FIG. 2B and 2C, the average values±S.E.M. from 2-5 experiments were plotted. The average fold increase for VP16/TIF2.4 with GAL/STAMP(623-834) in FIG. 6A was 11.0±3.0 (SEM, n=5) above the VP16 control. The values in parentheses above the data bars in FIG. 6B indicate the fold increased interaction ±1 μM Dex.
# These assays were conducted as described (He et al., 2002). In particular, the recommended procedure for the Mammalian Matchmaker two-hybrid assay kit (Clontech) was modified slightly by changing from a chloramphenicol acetyltransferase reporter to a Luciferase Reporter pFRLuc (Stratagene), which is under the control of five repeats of the upstream activating sequence for the binding of GAL4.
# [3] = target: T2, glucocorticoid receptor (GR); assay: Cell-free pulldown of [35S]-labeled GR by GST/STAMP segment; format: binding; conditions: with and without steroid
# Description: as §1, §2
# These assays were conducted generally as described (He et al., 2002). […] The proteins were separated on 8-10% SDS-PAGE gels and detected by radio-autoradiography.
# T3 sequence (Q6EMB2 5-1281 A149V/F1267S limits assumed): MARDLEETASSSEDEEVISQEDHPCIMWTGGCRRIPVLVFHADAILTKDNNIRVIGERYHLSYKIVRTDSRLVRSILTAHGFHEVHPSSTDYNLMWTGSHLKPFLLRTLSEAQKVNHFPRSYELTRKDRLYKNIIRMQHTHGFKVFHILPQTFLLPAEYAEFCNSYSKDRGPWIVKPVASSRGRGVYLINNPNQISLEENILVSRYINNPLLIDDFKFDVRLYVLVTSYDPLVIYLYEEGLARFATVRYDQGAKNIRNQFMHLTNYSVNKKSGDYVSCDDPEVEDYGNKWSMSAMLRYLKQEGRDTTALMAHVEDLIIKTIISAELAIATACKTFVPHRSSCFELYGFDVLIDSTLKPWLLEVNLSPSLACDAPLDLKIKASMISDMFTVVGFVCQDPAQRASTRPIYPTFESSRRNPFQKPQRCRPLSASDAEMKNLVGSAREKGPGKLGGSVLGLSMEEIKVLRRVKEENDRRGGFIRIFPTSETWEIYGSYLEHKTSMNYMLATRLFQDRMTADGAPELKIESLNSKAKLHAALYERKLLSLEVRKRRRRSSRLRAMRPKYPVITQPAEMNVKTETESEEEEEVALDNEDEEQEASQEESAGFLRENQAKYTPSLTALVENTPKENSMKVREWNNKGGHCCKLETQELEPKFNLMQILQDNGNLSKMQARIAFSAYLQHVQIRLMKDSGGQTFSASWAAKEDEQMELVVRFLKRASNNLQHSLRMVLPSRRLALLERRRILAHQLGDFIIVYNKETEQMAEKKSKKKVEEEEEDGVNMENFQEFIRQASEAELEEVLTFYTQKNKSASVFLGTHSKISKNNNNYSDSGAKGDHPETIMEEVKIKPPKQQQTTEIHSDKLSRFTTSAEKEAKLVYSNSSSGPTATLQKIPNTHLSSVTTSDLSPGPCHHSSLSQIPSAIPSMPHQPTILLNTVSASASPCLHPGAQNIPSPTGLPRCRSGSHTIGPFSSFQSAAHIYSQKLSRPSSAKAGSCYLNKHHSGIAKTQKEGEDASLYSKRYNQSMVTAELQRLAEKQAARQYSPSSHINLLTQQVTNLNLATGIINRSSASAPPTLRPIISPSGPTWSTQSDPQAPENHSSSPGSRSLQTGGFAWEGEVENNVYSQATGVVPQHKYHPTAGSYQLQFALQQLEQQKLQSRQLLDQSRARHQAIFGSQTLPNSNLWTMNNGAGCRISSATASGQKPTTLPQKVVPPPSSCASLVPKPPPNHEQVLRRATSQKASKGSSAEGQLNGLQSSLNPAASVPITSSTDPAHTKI
molecule,measurement,setting,value
"CAGCACTGACTATAACCTAAT (chemistry not given here) [STAMP siRNA #3, siRNA oligonucleotide for STAMP synthesized by Qiagen]",repressive activity of GR-agonist complexes (endogenous STAMP),STAMP,can reduce the repressive activity of GR-agonist complexes
"GAGGGCAATGAGGCCAAAATA (chemistry not given here) [STAMP siRNA #4, siRNA oligonucleotide for STAMP synthesized by Qiagen]",repressive activity of GR-agonist complexes (endogenous STAMP),STAMP,can reduce the repressive activity of GR-agonist complexes
"N623: STAMP fragment amino acids 1-623, TTL domain but not the CID region (protein, GAL4 DBD fusion, STAMP fragment amino acids 1-623, TTL domain but not the CID region) MARDLEETASSSEDEEVISQEDHPCIMWTGGCRRIPVLVFHADAILTKDNNIRVIGERYHLSYKIVRTDSRLVRSILTAHGFHEVHPSSTDYNLMWTGSHLKPFLLRTLSEAQKVNHFPRSYELTRKDRLYKNIIRMQHTHGFKVFHILPQTFLLPAEYAEFCNSYSKDRGPWIVKPVASSRGRGVYLINNPNQISLEENILVSRYINNPLLIDDFKFDVRLYVLVTSYDPLVIYLYEEGLARFATVRYDQGAKNIRNQFMHLTNYSVNKKSGDYVSCDDPEVEDYGNKWSMSAMLRYLKQEGRDTTALMAHVEDLIIKTIISAELAIATACKTFVPHRSSCFELYGFDVLIDSTLKPWLLEVNLSPSLACDAPLDLKIKASMISDMFTVVGFVCQDPAQRASTRPIYPTFESSRRNPFQKPQRCRPLSASDAEMKNLVGSAREKGPGKLGGSVLGLSMEEIKVLRRVKEENDRRGGFIRIFPTSETWEIYGSYLEHKTSMNYMLATRLFQDRMTADGAPELKIESLNSKAKLHAALYERKLLSLEVRKRRRRSSRLRAMRPKYPVITQPAEMNVKTETESEEEEEVALDNEDEEQEASQEESAGFLRENQAKYTPSLTALVE",binding to GST/TIF2.4,TIF2.4 [1],neither the amino terminal (N623) nor the C-terminal (834C) fragments exhibit significantly more binding to GST/TIF2.4 than to GST itself
same,interaction with TIF2.4,TIF2.4 [2],weak response
"GST/STAMP(956C): GST chimera of STAMP fragment amino acids 956 to 1277 (protein, GST fusion) LPRCRSGSHTIGPFSSFQSAAHIYSQKLSRPSSAKAGSCYLNKHHSGIAKTQKEGEDASLYSKRYNQSMVTAELQRLAEKQAARQYSPSSHINLLTQQVTNLNLATGIINRSSASAPPTLRPIISPSGPTWSTQSDPQAPENHSSSPGSRSLQTGGFAWEGEVENNVYSQATGVVPQHKYHPTAGSYQLQFALQQLEQQKLQSRQLLDQSRARHQAIFGSQTLPNSNLWTMNNGAGCRISSATASGQKPTTLPQKVVPPPSSCASLVPKPPPNHEQVLRRATSQKASKGSSAEGQLNGLQSSLNPAASVPITSSTDPAHTKI",binding of full length GR,[3],this binding is steroid-independent
